Assays:
[1] = cited from earlier work
thrombin [2] = molecular target: T1, thrombin (Homo sapiens, UniProt P00734); assay: chromogenic assay: inhibition of thrombin cleavage of synthetic substrate S-2238; format: biochemical
thrombin [3] = molecular target: T1, thrombin; assay: anti-thrombin activity of P2 released from fusion protein (test not specified); format: biochemical; settings: P2 released by CNBr cleavage of polyhedrin fusion protein from S. frugiperda cytoplasm
Description: The recombinant baculovirus was obtained as described in Example 5. Infection of S. frugiperda cells was carried out according to standard procedures^20. Cultivation of infected insect cells lead to the cytoplasmic accumulation of the fusion protein. This hybrid protein was the source of recombinant protein P2. Several methods are available from the literature which can be used to cleave the hybrid with CNBr^22,23.The application of the method of Olson et al^23, has allowed us to obtain the correct polypeptidic sequence of P2.

In the case of hirudin, the “efficacy in preventing venous thrombosis, vascular shunt occlusion and thrombin-induced disseminated intravascular coagulation” value ([1]; animal studies) is listed as “demonstrated efficacy”, the antigenicity ([1]; in vivo) is listed as “little or no antigenicity” and the “clearance time from circulation” value ([1]; in vivo) is listed as “very short clearance time”. For the same molecule, the toxicity ([1]; in vivo) was “low toxicity”.

B1: P2: 64-residue anti-thrombin polypeptide from Hirudinaria manillensis, HPLC peak P2, sequence (ii); also produced recombinantly in E. coli and insect cells (protein)
chain: VSYTDCTESGQNYCLCVGSNVCGEGKNCQLSSSGNQCVHGEGTPKPKSQTEGDFEEIPDEDILN
In the case of B1, the “activity of P2” value (thrombin [2]; E. coli type B strains with plasmid pOMP-P2 (Plpp/lac promoter)) is reported as “active”, the anti-thrombin activity (thrombin [2]; culture supernatants of S. frugiperda cells infected with recombinant baculovirus, spinner culture or monolayers) is reported as “presence of an anti-thrombin activity” and the anti-thrombin activity (thrombin [2]; periplasmic fraction of E. coli type B NCTC 10537 transformed with pFC-P2) is reported as “presence of anti-thrombin activity”. For the same molecule, the anti-thrombin activity (thrombin [3]) was “displayed anti-thrombin activity”.

— patent US5356875A, “Anti-thrombin polypeptides and pharmaceutical compositions thereof” (Farmitalia Carlo ERBA S.r.l., priority 1991, dated 1994)
